Measurements taken from patent US20230192897A1 (NUMAB THERAPEUTICS, published 2023).

Legend:
human PDL1 on cells = human PDL1 on cells (human, UniProt Q9NZQ7 19-290); assay: cell-based or functional assay
[1] = target: T1, CD137 on Jurkat NFkB reporter cells (human, UniProt Q07011 24-255); assay: cell-based or functional assay
[2] = target: human PDL1 extracellular domain (human, UniProt Q9NZQ7 19-238); assay: SPR, IgG format captured
Description: (§1) Affinity to PDL1 of the different species was determined by SPR measurements using a Biacore T200 device (GE Healthcare). An antibody specific for the Fc region of human IgGs was immobilized on a sensor chip (CM5 sensor chip, GE Healthcare) by amine-coupling. For all formats, with the exception of the Fc containing Morrison formats, PDL1-Fc chimeric protein from different species were captured by the immobilized antibody.
(§2) The Fc containing formats were directly captured by the antibody specific for the Fc region of human IgGs. Two-fold serial dilutions of PDL1 extracellular domain or CD137 extracellular domain ranging from 90 to 0.35 nM were tested for binding to the IgG captured on the biosensor chip. After each injection cycle, surfaces were regenerated with one injection of a 3 M MgCl2 solution.

[3] = target: T2, human CD137 extracellular domain (human, UniProt Q07011 24-186); assay: SPR, IgG format captured
T2 construct: also called CD137 (PeproTech, cat. 310-15)
Description: as §1, §2

biotinylated human PDL1 [4] = target: T3, biotinylated human PDL1 (human, UniProt Q9NZQ7 19-238, limits assumed, biotinylated); assay: competition ELISA B7.1/PDL1
T3 construct: also called biotinylated PDL1
Procedure, shortened: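 Test mixtures containing biotinylated human PDL1 were pre-incubated 1 h at room temperature, then incubated 1.5 h on the plate under agitation. Bound PDL1 detected with 10 ng/ml streptavidin-polyHRP40 and TMB, stopped at 6 min with HCl, read at 450 nm minus 690 nm. IC₅₀ from 4PL fit.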

biotinylated human PDL1 [5] = target: T3, biotinylated human PDL1; assay: competition ELISA PD-1/PDL1
Fc tagged human PDL1 = target: T4, Fc tagged human PDL1 (human, UniProt Q9NZQ7 19-239); assay: SPR
T4 construct: Bought (Sino Biological, cat. 10084-H02H); captured on the SPR chip; also called PDL1-Fc chimeric protein

Fc tagged human CD137 = target: T5, Fc tagged human CD137 (human, UniProt Q07011 24-186); assay: SPR
T5 construct: also called CD137-Fc chimeric protein
Procedure, shortened: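 Kinetics were fitted with a one-to-one Langmuir model to give apparent ka, kd and KD. Binders at 0.12-90 nM (three-fold series) flowed 3 min, with 10 min dissociation and 3 M MgCl₂ regeneration, on a Biacore T200.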

[6] = target: T1, CD137 on Jurkat NFkB reporter cells; assay: cell-based or functional assay; remark: listed apart in the source
[7] = target: T1, CD137 on Jurkat NFkB reporter cells; assay: cell-based or functional assay; remark: listed apart in the source

Row | Binder | IC50 (ng/ml), NF-AT potency assay (human PDL1 on cells) [ng/mL] | rel. IC50 (avelumab/test) (human PDL1 on cells) [fold] | IC50 (ng/ml), NFkB reporter, CHO-PD-L1, 24 h [1] [ng/mL] | rel. IC50 (urelumab/test), NFkB reporter, CHO-PD-L1, 24 h [1] [fold] | koff [2] [s⁻¹] | Kd [3] [nM] | koff [3] [s⁻¹] | kon [3] [M⁻¹ s⁻¹] | IC50 (biotinylated human PDL1 [4]) [µg/mL] | rel. IC50 (IC50 avelumab/IC50 test) (biotinylated human PDL1 [4]) [fold] | IC50 (biotinylated human PDL1 [5]) [µg/mL] | rel. IC50 (IC50 avelumab/IC50 test) (biotinylated human PDL1 [5]) [fold] | binding result (Fc tagged human PDL1) | koff (Fc tagged human CD137) [s⁻¹] | EC50, NFkB reporter, CHO-PDL1, 6 h, +HSA [6] [µg/mL] | EC50, NFkB reporter, CHO-PDL1, 24 h, +HSA [7] [µg/mL] | IC50 (ng/ml), NFkB reporter, CHO-PD-L1, 24 h, +HSA [1] [ng/mL] | max. activation (%), NFkB reporter, CHO-PD-L1, 24 h, +HSA [1] [%] | rel. IC50 (urelumab/test), NFkB reporter, CHO-PD-L1, 24 h, +HSA [1] [fold]
1 | PRO1059 (bispecific antibody, human IgG1, kappa, L234A L235A, silent hIgG1 anti-PDL1 with anti-CD137 scFv on the light chain; also called 33-03-G02 IgG1 LC with 38-02-A04 sc01 scFv; Morrison-L) light: DIQMTQSPSSLSASVGDRVTITCQASQSINDYLAWYQQKPGKAPKLLIYKASTLASGVPSRFSGSGSGTDFTLTISSLQPEDFATYYCQQGYIITDIDNVFGTGTKVTVLGTVAAPSVFIFPPSDEQLKSGTASVVCLLNNFYPREAKVQWKVDNALQSGNSQESVTEQDSKDSTYSLSSTLTLSKADYEKHKVYACEVTHQGLSSPVTKSFNRGECGGGGSGGGGSIQMTQSPSSLSASVGDRVTITCQASQSINNVLAWYQQKPGKAPKLLIYRASTLASGVPSRFSGSGSGTDFTLTISSLQPEDFATYYCQSSYGNYGDFGTGTKVTVLGGGGGSGGGGSGGGGSGGGGSQVQLQESGPGLVKPSETLSLTCKVSGFSFSNSYWICWIRQPPGKGLEWIGCTFVGSSDSTYYANWAKGRVTISVDSSKNQFSLKLSSVTAADTAVYYCARHPSDAVYGYANNLWGQGTLVTVSS heavy: QVQLQESGPGLVKPSETLSLTCKVSGFSFSSGYDMCWIRQPPGKGLEWIGCVVAGSVDITYYASWAKGRVTISVDSSKNQFSLKLSSVTAADTAVYYCARKDAYSDAFNLWGQGTLVTVSSASTKGPSVFPLAPSSKSTSGGTAALGCLVKDYFPEPVTVSWNSGALTSGVHTFPAVLQSSGLYSLSSVVTVPSSSLGTQTYICNVNHKPSNTKVDKRVEPKSCDKTHTCPPCPAPEAAGGPSVFLFPPKPKDTLMISRTPEVTCVVVDVSHEDPEVKFNWYVDGVEVHNAKTKPREEQYNSTYRVVSVLTVLHQDWLNGKEYKCKVSNKALGAPIEKTISKAKGQPREPQVYTLPPSREEMTKNQVSLTCLVKGFYPSDIAVEWESNGQPENNYKTTPPVLDSDGSFFLYSKLTVDKSRWQQGNVFSCSVMHEALHNHYTQKSLSLSPGK | 93.8 | 0.52 | 289 | 0.09 | 6.5e-05 | 2.3 | 0.00042 | 180000 | 0.029 | 0.3 | 0.00454 | 0.37 |  |  |  |  |  |  | 
2 | PRO1058 (other, trispecific scDb-scFv; also called 38-27-C05 sc01 scDb-i/33-03-G02 sc01 scDb-o/23-13-A01-sc03, sk17sh4) DIQMTQSPSSLSASVGDRVTITCQASQSINDYLAWYQQKPGKAPKLLIYKASTLASGVPSRFSGSGSGTDFTLTISSLQPEDFATYYCQQGYIITDIDNVFGTGTKVTVLGGGGGSQVQLQESGPGLVKPSETLSLTCKVSGFSFNNDYDMCWIRQPPGKGLEWIGCIDTGDGSTYYASWAKGRVTISVDSSKNQFSLKLSSVTAADTAVYYCAREAASSSGYGMGYFDLWGQGTLVTVSSGGGGSGGGGSGGGGSGGGGSIQMTQSPSSLSASVGDRVTITCQSSQSVYDNNWLAWYQQKPGKAPKLLIYRASNLASGVPSRFSGSGSGTDFTLTISSLQPEDFATYYCQGTYLSSNWYWAFGTGTKVTVLGGGGGSQVQLQESGPGLVKPSETLSLTCKVSGFSFSSGYDMCWIRQPPGKGLEWIGCVVAGSVDITYYASWAKGRVTISVDSSKNQFSLKLSSVTAADTAVYYCARKDAYSDAFNLWGQGTLVTVSSGGGGSGGGGSVVMTQSPSSLSASVGDRVTITCQASQIISSRSAWYQQKPGQPPKLLIYQASKLASGVPSRFSGSGSGTDFTLTISSLQPEDFATYYCQCTYIDSNFGAFGGGTKLTVLGGGGGSGGGGSGGGGSGGGGSEVQLVESGGGLVQPGGSLRLSCAASGFSFSSSYWICWVRQAPGKGLEWVGCVFTGDGTTYYASWAKGRFTISRDNSKNTVYLQMNSLRAEDTATYFCARPVSVYYYGMDLWGQGTLVTVSS |  |  |  |  |  |  |  |  |  |  |  |  | binds | 0.0021 | 0.0709 | 0.121 | 121 | 36.2 | 0.64
